Target: C4b (UniProt P0C0L4)
Experiment: cell-based or functional assay

C4b, sequence (P0C0L4 20-1744): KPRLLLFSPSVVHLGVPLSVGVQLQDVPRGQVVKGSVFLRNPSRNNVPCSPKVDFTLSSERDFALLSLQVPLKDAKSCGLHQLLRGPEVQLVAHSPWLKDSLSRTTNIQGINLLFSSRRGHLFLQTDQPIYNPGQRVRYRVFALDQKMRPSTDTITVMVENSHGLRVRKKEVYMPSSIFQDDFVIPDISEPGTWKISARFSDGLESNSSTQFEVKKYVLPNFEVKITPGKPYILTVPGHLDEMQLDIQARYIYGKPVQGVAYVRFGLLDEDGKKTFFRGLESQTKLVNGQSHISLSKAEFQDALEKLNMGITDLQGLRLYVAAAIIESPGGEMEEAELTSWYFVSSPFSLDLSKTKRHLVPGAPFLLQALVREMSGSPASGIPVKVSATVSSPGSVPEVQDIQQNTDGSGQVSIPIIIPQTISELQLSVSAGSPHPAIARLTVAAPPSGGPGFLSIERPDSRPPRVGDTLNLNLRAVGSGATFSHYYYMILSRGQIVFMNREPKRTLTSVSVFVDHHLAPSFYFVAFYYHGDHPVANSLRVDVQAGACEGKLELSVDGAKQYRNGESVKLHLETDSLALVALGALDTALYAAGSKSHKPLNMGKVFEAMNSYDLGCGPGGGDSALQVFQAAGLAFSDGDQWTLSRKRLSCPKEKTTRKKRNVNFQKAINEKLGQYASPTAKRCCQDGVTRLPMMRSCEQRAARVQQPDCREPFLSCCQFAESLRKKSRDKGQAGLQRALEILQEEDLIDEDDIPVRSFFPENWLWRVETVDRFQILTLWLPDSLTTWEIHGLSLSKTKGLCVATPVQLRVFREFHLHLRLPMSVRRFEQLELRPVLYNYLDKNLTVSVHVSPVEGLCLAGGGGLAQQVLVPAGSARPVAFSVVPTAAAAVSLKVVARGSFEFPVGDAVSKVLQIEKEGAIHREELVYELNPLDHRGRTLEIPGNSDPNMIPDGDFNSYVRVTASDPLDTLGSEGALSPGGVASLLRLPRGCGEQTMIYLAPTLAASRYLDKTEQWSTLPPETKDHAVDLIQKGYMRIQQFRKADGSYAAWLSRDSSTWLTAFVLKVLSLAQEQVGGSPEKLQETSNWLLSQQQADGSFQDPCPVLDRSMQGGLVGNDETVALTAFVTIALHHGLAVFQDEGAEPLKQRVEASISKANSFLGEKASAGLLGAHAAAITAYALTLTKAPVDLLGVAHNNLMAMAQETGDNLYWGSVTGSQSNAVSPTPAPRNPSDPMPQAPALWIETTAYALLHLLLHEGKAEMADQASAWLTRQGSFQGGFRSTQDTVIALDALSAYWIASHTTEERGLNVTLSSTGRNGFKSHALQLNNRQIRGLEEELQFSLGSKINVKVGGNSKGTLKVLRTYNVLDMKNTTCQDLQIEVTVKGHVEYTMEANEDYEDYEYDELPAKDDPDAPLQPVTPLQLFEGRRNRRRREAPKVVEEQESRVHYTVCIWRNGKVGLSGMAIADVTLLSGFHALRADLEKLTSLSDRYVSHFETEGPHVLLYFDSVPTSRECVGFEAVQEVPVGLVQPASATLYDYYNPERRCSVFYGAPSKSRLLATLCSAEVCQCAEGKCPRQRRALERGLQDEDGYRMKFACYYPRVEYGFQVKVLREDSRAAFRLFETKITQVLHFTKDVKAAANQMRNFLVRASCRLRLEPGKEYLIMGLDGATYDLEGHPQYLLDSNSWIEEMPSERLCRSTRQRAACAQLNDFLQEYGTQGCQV

Substance “soluble human CR1 (from UniProt P17927 42-1971) (receptor)” has a time to 50% degradation of the C4bα′ chain (cofactor activity for factor I, densitometry) of 15 min.
